± gives the uncertainty stated by the source.
Assay: self-splicing fitness, log relative to wild type (ln ratio); higher = more splicing; Tetrahymena group I intron in knt gene, E. coli kanamycin selection, DiMSum; sequences stand for … in CUCUCU…GGAGGGAAAAGUUAUCAGGCAUGCACCUGGUAGCUAGUCUUUAAACCAAUAGAUUGCAUCGGUUUAAAAGGCAAGACCGUCAAAUUGCGGGAAAGGGGUCAACAGCCGUUCAGUACCAAGUCUCAGGGGAAACUUUGAGAUGGCCUUGCAAAGGGUAUGGUAAUAAGCUGACGGACAUGGUCCUAACCACGCAGCCAAGUCCUAAGUCAACAGAUCUUCUGUUGAUAUGGAUGCAGUUCACAGACUAAAUGUCGGUCGGGGAAGAUGUAUUCUUCUCAUAAGAUAUAGUCGGACCUCUCCUUAAUGGGAGCUAGCGGAUGAAGUGAUGCAACACUGGAGCCGCUGGGAACUAAUUUGUAUGCGAAAGUAUAUUGAUUAGUUUUGGAGUACUCGUGGUCG
How it was run: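 Colonies from six replicate transformations of E. coli BL21(DE3) were pooled and amplicon-sequenced on an Illumina HiSeq 2500. The library placed an intron with all eight P1ex-region nucleotides randomised inside the knt kanamycin-resistance gene on pET-22b(+), and cells grew overnight at 37°C or 30°C on LB agar with or without 25 μg/mL kanamycin (plus 100 μg/mL carbenicillin, 50 μM IPTG, 0.2% rhamnose). Fitness is the DiMSum error-weighted combination of wild-type-normalised replicate fold changes, kanamycin versus none.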

| Sequence | self-splicing fitness (ln) (30 °C) | self-splicing fitness (ln) (37 °C) |
| --- | --- | --- |
| UCGCAGCAAUAUUACGGCUC | -3.21 ± 0.17 | -2.96 ± 0.35 |
| UUGAAGCAAUAUUACGAUUG | -1.35 ± 0.088 | 0.272 ± 0.11 |
| ACUAAGCAAUAUUACGCAGU | -4.72 ± 0.28 | -3.25 ± 0.46 |
| GCUUAGCAAUAUUACGAACA | -1.38 ± 0.16 | -0.519 ± 0.19 |
| ACGAAGCAAUAUUACGUAUA | -2.5 ± 0.12 | -2.16 ± 0.12 |
| UCAUAGCAAUAUUACGACCA | -0.368 ± 0.34 | -0.568 ± 0.31 |
| ACACAGCAAUAUUACGCUCU | -0.902 ± 0.069 | -0.159 ± 0.075 |
| UCGGAGCAAUAUUACGAAUA | -2.32 ± 0.32 | -1.27 ± 0.32 |
| UGAUAGCAAUAUUACGGCCU | -0.718 ± 0.097 | -0.609 ± 0.15 |
| CCUUAGCAAUAUUACGAAUU | – | -2.29 ± 0.49 |
| GGGAAGCAAUAUUACGGCGC | -2.22 ± 0.1 | -1.1 ± 0.053 |
| GCUUAGCAAUAUUACGGUUC | -0.635 ± 0.098 | -0.185 ± 0.12 |
| AAUCAGCAAUAUUACGCGCC | -0.953 ± 0.12 | -0.532 ± 0.13 |
| GCUCAGCAAUAUUACGAUUA | -0.516 ± 0.072 | -0.287 ± 0.08 |
| UAUUAGCAAUAUUACGGUGA | -1.92 ± 0.12 | -1.33 ± 0.11 |
| CACAAGCAAUAUUACGUGUC | -3.86 ± 0.15 | -1.63 ± 0.12 |
| UCUGAGCAAUAUUACGGCGU | -1.82 ± 0.1 | -0.983 ± 0.14 |
| CUGAAGCAAUAUUACGACGC | -3.78 ± 0.35 | – |

| Sequence | self-splicing fitness (ln) (30 °C) | self-splicing fitness (ln) (37 °C) |
| --- | --- | --- |
| AGAUAGCAAUAUUACGCAAG | -2.2 ± 0.15 | -0.0746 ± 0.16 |
| UGCUAGCAAUAUUACGAGCA | – | -2.39 ± 0.39 |
| GCGUAGCAAUAUUACGUCCU | -1.47 ± 0.14 | -0.8 ± 0.15 |
| UUGUAGCAAUAUUACGCCGG | -0.988 ± 0.16 | -0.179 ± 0.27 |
| UGGGAGCAAUAUUACGAUUA | -2.17 ± 0.22 | -2.1 ± 0.29 |
| CGGCAGCAAUAUUACGUAUU | -3.6 ± 0.16 | -3.11 ± 0.18 |
| UUAUAGCAAUAUUACGCCUG | -0.833 ± 0.4 | -0.933 ± 0.37 |
| ACAGAGCAAUAUUACGCAGU | – | -2.62 ± 0.4 |
| UCAUAGCAAUAUUACGUGCA | -1.06 ± 0.082 | 0.377 ± 0.092 |
| CGAAAGCAAUAUUACGGGGU | -3.65 ± 0.21 | -1.94 ± 0.18 |
| GUUGAGCAAUAUUACGAUCG | -1.18 ± 0.39 | – |
| GUGUAGCAAUAUUACGCUAG | -3.53 ± 0.31 | -1.88 ± 0.36 |
| UAGCAGCAAUAUUACGCGAC | -3.54 ± 0.21 | -1.67 ± 0.21 |
| GGUCAGCAAUAUUACGGUUC | 0.308 ± 0.096 | -0.214 ± 0.1 |
| UUUGAGCAAUAUUACGCCUG | -2.85 ± 0.27 | -1.21 ± 0.38 |
| ACCGAGCAAUAUUACGUUCU | -2.38 ± 0.074 | -1.01 ± 0.074 |
| CACGAGCAAUAUUACGAAAA | -2.14 ± 0.17 | -2.66 ± 0.25 |

Reference: the supplement of paper PMC7877785
